1 substance from patent publication US20020037288A1 can be followed below.

The target in assay [1] is HM1.24 antigen protein (human). The experiment in a line: FCM, indirect method, 25 ug/ml antibody; JM cells (T cell line).
For assay [2], the target named is HM1.24 antigen protein (human). As to the kind of experiment: FCM, indirect method, 25 ug/ml antibody; CESS cells (B cell line).
Assay [3] deals with HM1.24 antigen protein (human). As to the kind of experiment: FCM, indirect method, 25 ug/ml antibody; EB-3 cells (B cell line).
The target of assay [4] is HM1.24 antigen protein (human). The experiment in a line: FCM, indirect method, 25 ug/ml antibody; KT-3 cells (T cell line).
Assay [5] addresses HM1.24 antigen protein (human). As to the kind of experiment: FCM, indirect method, 25 ug/ml antibody; MT-1 cells (T cell line).
Assay [6] concerns the target HM1.24 antigen protein (human). As to the kind of experiment: FCM, indirect method, 25 ug/ml antibody; MC116 cells (B cell line).
For assay [7], the target named is HM1.24 antigen protein (human). As to the kind of experiment: FCM, indirect method, 25 ug/ml antibody; Jijoye cells (B cell line).
Assay [8] addresses HM1.24 antigen protein (human). As to the kind of experiment: FCM, indirect method, 25 ug/ml antibody; Jurkat cells (T cell line).
Assay [9] addresses HM1.24 antigen protein (human). The experiment in a line: FCM, indirect method, 25 ug/ml antibody; MOLT-4 cells (T cell line).
Assay [10] has as its target HM1.24 antigen protein (human). As to the kind of experiment: FCM, indirect method, 25 ug/ml antibody; CCRF-SB cells (B cell line).
The target of assay [11] is HM1.24 antigen protein (human). As to the kind of experiment: FCM, indirect method, 25 ug/ml antibody; HPB-ALL cells (T cell line).
For assay [12], the target named is HM1.24 antigen protein (human). As to the kind of experiment: FCM, indirect method, 25 ug/ml antibody; HPB-MLT cells (T cell line).
Assay [13] addresses HM1.24 antigen protein (human). The experiment in a line: FCM, indirect method, 25 ug/ml antibody; SKW 6.4 cells (B cell line).
The target of assay [14] is HM1.24 antigen protein (human). As to the kind of experiment: FCM, indirect method, 25 ug/ml antibody; CCRF-CEM cells (T cell line).
Assay [15] addresses HM1.24 antigen protein (human). The experiment in a line: FCM, indirect method, 25 ug/ml antibody; RPMI 6410 cells (B cell line).
In assay [16] the target is HM1.24 antigen protein (human). As to the kind of experiment: FCM, indirect method, 25 ug/ml antibody; RPMI 8402 cells (T cell line).
Assay [17] deals with HM1.24 antigen protein (human). As to the kind of experiment: FCM, indirect method, 25 ug/ml antibody; CCRF-HSB-2 cells (T cell line).

Turning to mouse anti-HM1.24 monoclonal antibody, the percentage of HM1.24 antigen-positive cells (Expression rate) in assay [1] was found to be 99.6%; in assay [2], 94.5%; in assay [3] it was 88.3%; in assay [4], 96%; in assay [5], 95.9%; in assay [6], 65%. Moreover, the percentage of HM1.24 antigen-positive cells (Expression rate) was 92.3% in assay [7]; 70.9% in assay [8]; 84.1% in [9]; 98.4% in assay [10]; 63.8% in assay [11]; 94.6% in assay [12]. In addition, the percentage of HM1.24 antigen-positive cells (Expression rate) in assay [13] was 92.8%; in assay [14], 97.8%; in [15], 94.5%; in assay [16] it was 94%; in [17] it was 100%.
